Source: patent US20240036027A1

Experiments:
[1] = target: OmpG^L3-FLAG (Escherichia coli) (UniProt P76045); test: single-channel current recording, N=3 pores, n=9 binding events
[2] = target: OmpG^Q224-FLAG (Escherichia coli) (UniProt P76045); test: single-channel current recording, 30 nM FG4R
[3] = target: OmpG^Q224-FLAG (Escherichia coli) (UniProt P76045); test: single-channel current recording, 30 nM antibody, 50 mV, 30 pA pores

| Substance | reduction in pore conductance in the bound state [1] [%] | reduction of current flow in the bound state [2] [%] | reduction in current in the bound state [3] [pA] |
| --- | --- | --- | --- |
| Monoclonal mouse anti-FLAG antibody FG4R [RRID AB_1957945] | 5.02 | 10 |  |
| FLAG tag monoclonal antibody OTI4C5 (OriGene Technologies) |  |  | 20 |
